Measurements: patent publication US20090312249A1

Key:
[1] = biological target: MD-2 (myeloid differentiation protein-2) (UniProt Q9Y6Y9); experiment: SPR (BIAcore 3000), TFL amine-coupled on CM5 chip, MD-2 8-250 nM as analyte, 1:1 Langmuir model, 25 C
[2] = biological target: MD-2 (myeloid differentiation protein-2) (UniProt Q9Y6Y9); experiment: SPR (BIAcore 3000): TFL amine-coupled on a CM5 chip, MD-2 at 8 to 250 nM as analyte, 25 C, 1:1 Langmuir fit

Chain of UniProt Q9Y6Y9 (Q9Y6Y9 19-160 limits assumed): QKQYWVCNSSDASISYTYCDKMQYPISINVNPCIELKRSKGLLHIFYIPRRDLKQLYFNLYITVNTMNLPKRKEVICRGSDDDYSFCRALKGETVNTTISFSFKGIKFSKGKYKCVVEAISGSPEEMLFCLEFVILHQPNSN

TFL (Fc-tagged hTLR4 full-length ectodomain) (Fc fusion)
Kd [1]: 81 nM
Kd [2]: 81.1 nM
koff [2]: 0.00187 s⁻¹
kon [2]: 23100 M⁻¹ s⁻¹
